{
  "source": "paper PMC9977449",
  "about": "“Discovery of lipid-mediated protein–protein interactions in living cells using metabolic labeling with photoactivatable clickable probes†” (Chemical Science, 2023)",
  "key": {"[1]": {"biological_target": "T1, FSP1-TST, wild type, from cells under NMT inhibition (UniProt Q9BRQ8 1-373)", "T1 construct": "FSP1 (ferroptosis suppressor protein 1); same construct as m3; not shown: Twin-Strep-tag, C-terminal, kept", "T1 sequence (looked up)": "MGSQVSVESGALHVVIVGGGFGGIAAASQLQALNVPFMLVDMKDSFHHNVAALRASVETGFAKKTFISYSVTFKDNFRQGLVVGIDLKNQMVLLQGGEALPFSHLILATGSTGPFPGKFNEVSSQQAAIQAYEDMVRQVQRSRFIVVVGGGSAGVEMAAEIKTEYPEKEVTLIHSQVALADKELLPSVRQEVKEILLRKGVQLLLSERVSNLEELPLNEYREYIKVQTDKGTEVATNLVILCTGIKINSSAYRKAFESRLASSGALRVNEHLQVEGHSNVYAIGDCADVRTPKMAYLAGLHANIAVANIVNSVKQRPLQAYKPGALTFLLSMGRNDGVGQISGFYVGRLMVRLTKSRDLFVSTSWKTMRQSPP", "test": "co-IP; as a2, wild-type FSP1-TST with NMT inhibition of the cells", "settings": "partners not purified"}, "[2]": {"biological_target": "T2, FSP1-TST, myristoylation-deficient G2A mutant (UniProt Q9BRQ8 1-373, G2A)", "T2 construct": "FSP1 (ferroptosis suppressor protein 1) with G2A; also called FSP1 G2A mutant; source: HEK293, transfected, in lysate; not shown: Twin-Strep-tag, C-terminal, kept", "T2 sequence (looked up)": "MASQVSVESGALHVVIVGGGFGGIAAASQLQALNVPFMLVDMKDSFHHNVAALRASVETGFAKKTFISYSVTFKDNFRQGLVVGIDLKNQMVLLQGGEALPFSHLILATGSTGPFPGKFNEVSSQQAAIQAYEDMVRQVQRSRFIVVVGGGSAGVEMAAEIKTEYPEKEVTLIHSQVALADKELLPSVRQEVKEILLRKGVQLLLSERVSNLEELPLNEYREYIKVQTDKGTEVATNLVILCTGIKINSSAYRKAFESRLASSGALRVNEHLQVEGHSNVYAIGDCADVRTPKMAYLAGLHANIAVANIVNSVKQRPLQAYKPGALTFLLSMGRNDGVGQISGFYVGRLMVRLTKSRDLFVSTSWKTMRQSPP", "test": "co-IP; TST-tagged protein (WT or G2A) transfected in HEK293 cells, captured on Strep-Tactin resin; blot with TRA2B or TOMM40 antibody, signal normalised to the bait's signal", "settings": "partners not purified"}},
  "data": [
    {"binder": "TOMM40, mitochondrial protein that facilitates protein import into mitochondria (natural protein, human (endogenous in HEK293), UniProt O96008 1-361, looked up, myristoylated (the paper: 'is itself also myristoylated'), TOMM40, endogenous in HEK293 cells, detected with a TOMM40 antibody; source: endogenous, HEK293 lysate) MGNVLAASSPPAGPPPPPAPALVGLPPPPPSPPGFTLPPLGGSLGAGTSTSRSSERTPGAATASASGAAEDGACGCLPNPGTFEECHRKCKELFPIQMEGVKLTVNKGLSNHFQVNHTVALSTIGESNYHFGVTYVGTKQLSPTEAFPVLVGDMDNSGSLNAQVIHQLGPGLRSKMAIQTQQSKFVNWQVDGEYRGSDFTAAVTLGNPDVLVGSGILVAHYLQSITPCLALGGELVYHRRPGEEGTVMSLAGKYTLNNWLATVTLGQAGMHATYYHKASDQLQVGVEFEASTRMQDTSVSFGYQLDLPKANLLFKGSVDSNWIVGATLEKKLPPLPLTLALGAFLNHRKNKFQCGFGLTIG", "values": [
      {"measurement": "co-immunoprecipitated TOMM40, percent of WT", "setting": "[1]", "value": "28 % of WT"},
      {"measurement": "co-immunoprecipitated TOMM40, percent of WT FSP1", "setting": "[2]", "value": "22 % of WT FSP1"}
    ]}
  ]
}
